Experimental data from publication PMC12923992 (Cell metabolism, 2026).

Target: T1, N-terminal cytosolic domain of Band 3 (residues 1–395) (human, UniProt P02730 1-395)
T1 sequence (looked up): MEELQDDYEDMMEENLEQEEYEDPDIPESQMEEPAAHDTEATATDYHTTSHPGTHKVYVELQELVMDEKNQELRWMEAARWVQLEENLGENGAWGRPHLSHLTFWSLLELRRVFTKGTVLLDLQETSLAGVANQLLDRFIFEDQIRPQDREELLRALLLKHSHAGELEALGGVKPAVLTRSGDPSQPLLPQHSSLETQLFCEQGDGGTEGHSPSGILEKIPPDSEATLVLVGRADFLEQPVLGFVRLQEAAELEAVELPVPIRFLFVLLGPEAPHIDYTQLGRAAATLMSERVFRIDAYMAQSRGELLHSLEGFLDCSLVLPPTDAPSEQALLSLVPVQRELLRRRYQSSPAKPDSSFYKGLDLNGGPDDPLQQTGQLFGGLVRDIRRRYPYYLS
Assay: ITC

- Kd: 1.18 µM
B1: recombinantly-expressed human GAPDH (enzyme)
chain: not shown
